Consider 14 sequences from the supplement of paper PMC9170038.

For the data set, the system named is MS2 coat protein. Description: apparent KD of MS2 coat protein; higher = weaker reporter binding. The conditions noted are these: Eterna round: R107. In outline:
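Each design's apparent KD comes from the median of binding-curve fits to its normalised clusters. Those clusters carried RNA switches transcribed on-chip from Illumina sequencing clusters. SNAP-549-labelled MS2 coat protein was titrated onto them in twofold steps (0.7 or 1.5 nM to 3 µM; per step 0.8–1.5 h down to 10–20 min). Conditions were 100 mM Tris-HCl pH 7.5, 80 mM KCl, 4 mM MgCl2, without or with constant ligand.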

Setting [1] is: input ligand: theophylline 20 uM.
[2] abbreviates: input ligand: theophylline 2 mM.
The mark [3] stands for this setting: input ligand: tryptophan 2.4 mM.

On to “CCUCAAUAGACGGCCGCCACUGAAACAUGCGGAUACAUGAGGAUCACCCAUGUGGGUGUGUUACGCAGGACCGGGUCAAGACCCG [#12 Same State - Tryptophan B]”, for which the “apparent KD of MS2 coat protein” value amounted to 115 nM (input ligand: arginine 13.2 mM), 316 nM under setting [1] and 583 nM under setting [2].

Take “CCUCCUUGUACGGCCGCCACUGCAUCUCUGGAUACUCCGAUAAUACAUGAGGAUCACCCAUGUUACAGGACCGGGUAUAUAUUAC [theeternabot_sameState_MS2_Trp_B_19]”: the “apparent KD of MS2 coat protein” value is, setting by setting: (input ligand: arginine 13.2 mM) 14.7 nM; under setting [1], 18.7 nM; under setting [2], 15.3 nM.

On to “CGAAUAUAGACGGCCGCCACUCUACAAACAUGAGGAUCACCCAUGUUCACAUAGUGGAAACACAUGAGGACCGGGUCAUAGGCAU [#18 Same State - Tryptophan B]”, for which the “apparent KD of MS2 coat protein” value (input ligand: arginine 13.2 mM) was 19.2 nM, the “apparent KD of MS2 coat protein” value under setting [1] was found to be 25.4 nM and the “apparent KD of MS2 coat protein” value under setting [2] was 21.3 nM.

Regarding “CGAUAGAUACGAAGGAGCGACAUGAGGAUCACCCAUGUCUACCACGUCGAAAGACGCUCAUGUCAGGUAGGUCGCGUAUUUAUCG [Astros-Eli-mod8]”, the “apparent KD of MS2 coat protein” value (input ligand: arginine 13.2 mM) worked out at 60.3 nM; the “apparent KD of MS2 coat protein” value (input ligand: none) stood at 122 nM; the “apparent KD of MS2 coat protein” value under setting [1] is 124 nM; the “apparent KD of MS2 coat protein” value under setting [2] was determined as 156 nM; the “apparent KD of MS2 coat protein” value under setting [3] was 101 nM.

With “CGGCCCUCACCUGAGGAUCACCCGGGUGAUACCAGCCUGGAAACAGGCCCUUGGCAGCACCAGGUCAUCAAAGAUGACCAAGCCG [TheoAX 26 #OpenEnded #AlternativeMS2]”, the “apparent KD of MS2 coat protein” value (input ligand: arginine 13.2 mM) was 21.3 nM; the “apparent KD of MS2 coat protein” value (input ligand: none) amounted to 97.5 nM; the “apparent KD of MS2 coat protein” value under setting [1] is 110 nM; the “apparent KD of MS2 coat protein” value under setting [2] is 2630 nM; the “apparent KD of MS2 coat protein” value under setting [3] was 105 nM.

Take “CGUAUUACGAAAGUAGUACGUAGUUCGAGUCGAGGACCGGUACGGCCGCCACUCGGACAUGAGGAUCACCCAUGUAGCGAAAGCU [Tryptophan A 23]”: the “apparent KD of MS2 coat protein” value (input ligand: arginine 13.2 mM) was 68.2 nM; the “apparent KD of MS2 coat protein” value (input ligand: none) came to 125 nM; the “apparent KD of MS2 coat protein” value under setting [1] is 156 nM; the “apparent KD of MS2 coat protein” value under setting [2] was 161 nM; the “apparent KD of MS2 coat protein” value under setting [3] was found to be 72.4 nM.

Take “CGUAUUGUAACUGAUACCAGUGUACUGACAUGAGGAUCACCCAUGUUGGGUUUUGUUGUACACCCUUGGCAGCAGAAUCAAUACG [AstrosExyTheB#5]”: the “apparent KD of MS2 coat protein” value by setting is: (input ligand: arginine 13.2 mM) 59.4 nM; under setting [1], 74.2 nM; under setting [3], 65.8 nM.

With “CUAAGAGCGGCGGCCGCCACUGGUAACCAAGAGGCGGAGCCUCUGACAUGAGGAUCACCCAUGUUCAGGACCGGGUCGUCUUAGA [#07 Same State - Tryptophan B]”, the “apparent KD of MS2 coat protein” value was 7.23 nM (input ligand: arginine 13.2 mM); 12.2 nM (input ligand: none); 13.6 nM under setting [1]; 18.5 nM under setting [2]; 10.9 nM under setting [3].

As to “CUAUAUAUAUCGGCCGCCACUUACUCAUGAGGUAACAACAUGAGGAUCACCCAUGUUUGAGGAUCAAGGACCGGGAUAUAUAUAG [AstrosSSTryB#15]”, the “apparent KD of MS2 coat protein” value (input ligand: arginine 13.2 mM) turned out to be 31.8 nM, the “apparent KD of MS2 coat protein” value under setting [1] came to 33.4 nM and the “apparent KD of MS2 coat protein” value under setting [2] amounted to 32.6 nM.

With “CUAUAUGGAAACAUAUAGAAGCGAAAGCAGCGAGGACCGGUACGGCCGCCACUCGCAGAGUGGUGGACAUGAGGAUCACCCAUGU [Design 2]”, the “apparent KD of MS2 coat protein” value (input ligand: arginine 13.2 mM) is 43.8 nM; the “apparent KD of MS2 coat protein” value (input ligand: none) stood at 83.2 nM; the “apparent KD of MS2 coat protein” value under setting [1] is 111 nM; the “apparent KD of MS2 coat protein” value under setting [2] was 74.6 nM; the “apparent KD of MS2 coat protein” value under setting [3] stood at 40 nM.

Turning to “CUAUAUUAUAGAAGGAGCGUCGAAAAUGGGUAAACAUGAGGAUCACCCAUGUAAAGGGAACGACAGGUAGGUCGCUAUAAUAUAG [AstromonsSSArgB#13]”, the “apparent KD of MS2 coat protein” value (input ligand: arginine 13.2 mM) worked out at 117 nM; the “apparent KD of MS2 coat protein” value (input ligand: none) is 220 nM; the “apparent KD of MS2 coat protein” value under setting [1] was 201 nM; the “apparent KD of MS2 coat protein” value under setting [2] is 252 nM; the “apparent KD of MS2 coat protein” value under setting [3] stood at 195 nM.

“CUAUAUUUAUCGGCCGCCACUUACUCAUGAGGUAACAACAUGAGGAUCACCCAUGUUUGAGGAUCAAGGACCGGGAUAAAUAUAG [AstrosSSTryB#17]”: the “apparent KD of MS2 coat protein” value was 25.4 nM (input ligand: arginine 13.2 mM), 34.2 nM under setting [1] and 31 nM under setting [2].

For “CUAUCCUUGCCGGAUGAAGGACACUGAGAAGGAGCGCGGUAAUCCGCAGGUAGGUCGCUCAGGAGUACAUGAGGAUCACCCAUGU [Xeonrave]”, the “apparent KD of MS2 coat protein” value by setting is: (input ligand: arginine 13.2 mM) 16.1 nM; (input ligand: none) 20.8 nM; under setting [1], 26.9 nM; under setting [2], 23.7 nM; under setting [3], 20.7 nM.

With “CUCCCGUGGUCGGCCGCCACUGGAGGCCUCGCGCGACAUGAGGAUCACCCAUGUUGGCCCGGCUUCAGGACCGGGAUCGCGUGAG [#1 Same State - Tryptophan B Attempt #8 (HarryS)]”, the “apparent KD of MS2 coat protein” value reads like this: (input ligand: arginine 13.2 mM) 12.2 nM; under setting [1], 16.2 nM; under setting [2], 12.6 nM.
